B1: Porteresia coarctata L-myo-inositol 1-phosphate synthase PINO1, recombinant (GenBank AF 412340) (Oryza coarctata) (protein)
chain: MFIESFRVESPHVRYGAAEIESEYRYDTTELVHESHDGASRWVVRPKSVQYHFRTSTTVPKLGVMLVGWGGNNGSTLTAGVIASREGISWATKDKVQQANYYGSLTQASTIRVGSYNGEEIYAPFKSLLPMVNPDDLVFGGWDISNMNLADAMTRAKVLDIDLQKQLRPYMESWCLSLASMIPTSSPLTRDPARTMSSREPRRSRWGRSSKDIREFKENNKMDKAVVLWTANTERYNNCLCLGLMTNGKPSASVDRNQAEISPSTLYCHCLASLEGVRSITGALKKKSWPGIDDLAIKKKLPDPGGLIQKRGKPKKKTGLVDFLMGAGIKPTSIVSYNHLGNNDGTNLSAPQTFRSKEISKSSVVDDMVSSNAILYEPGEHPDHVVVIKYVPYVGDSKRAMDEYTSEIFMGGKNTIVLHNTCEDSLLAAPIILDLVLLAELSTRIQLKGEGEEKFHSFHPVATILSYLTKAPLVPPGTPVVNALAKQRAMLENIMRACVGLAPENNMILEYK
notes: homotrimer
B2: Oryza sativa L-myo-inositol 1-phosphate synthase RINO1, recombinant (GenBank AB012107) (Oryza sativa Japonica Group) (protein)
chain: MFIESFRVESPHVRYGAAEIESDYQYDTTELVHESHDGASRWIVRPKSVRYNFRTTTTVPKLGVMLVGWGGNNGSTLTAGVIANREGISWATKDKVQQANYYGSLTQASTIRVGSYNGEEIYAPFKSLLPMVNPDDLVFGGWDISNMNLADAMTRAKVLDIDLQKQLRPYMESMVPLPGIYDPDFIAANQGSRANNVIKGTKKEQMEQIIKDIREFKEKSKVDKVVVLWTANTERYSNVCVGLNDTMENLLASVDKNEAEISPSTLYAIACVMEGIPFINGSPQNTFVPGLIDLAIKNNCLIGGDDFKSGQTKMKSVLVDFLVGAGIKPTSIVSYNHLGNNDGMNLSAPQTFRSKEISKSNVVDDMVSSNAILYELGEHPDHVVVIKYVPYVGDSKRAMDEYTSEIFMGGKSTIVLHNTCEDSLLAAPIILDLVLLAELSTRIQLKAEGEEKFHSFHPVATILSYLTKAPLVPPGTPVVNALAKQRAMLENIMRACVGLAPENNMILEYK
notes: homotrimer

Key:
[1] = substrate: O=P(O)(O)OC[C@H]1OC(O)[C@H](O)[C@@H](O)[C@@H]1O; test: cells, lysate or membranes named; details: Line-Weaver Burk analysis, pH 7.5
[2] = substrate: NC(=O)c1ccc[n+]([C@@H]2O[C@H](COP(=O)([O-])OP(=O)(O)OC[C@H]3O[C@@H](n4cnc5c(N)ncnc54)[C@H](O)[C@@H]3O)[C@@H](O)[C@H]2O)c1; test: Km and Vmax of recombinant PINO1 (Biogel 0.5A purified, Line-Weaver Burk analysis); type: biochemical, Porteresia coarctata; details: other: recombinant PINO1, expressed in E. coli BL21 (DE3), pH 7.5
Description: (§1) The cDNA for RINO1 and PINO1 were subcloned into suitable cloning sites of the bacterial expression vector pET 20B (+). The resulting plasmids were introduced into the host strain E. coli BL-21 (DE3). The bacteria were grown in LB medium up to A600 of 0.5-absorbance unit and induced by 0.5 mM IPTG for 6 hours at 30° C. The bacteria were collected by centrifugation and lysed by sonication in a buffer containing 20 mM Tris-HCl, pH 7.5. 10 mM each of NH4Cl and ME, 2 mM PMSF. The lysed extracts were centrifuged and protein from both soluble and membrane fractions were analyzed by 10% SDS-PAGE according to Lammeli (Nature, 227, 660-605, 1970) followed by western blot for immunodetection. The separated proteins were blotted onto PVDF membrane and the blot was probed with rabbit anti L-myo-inositol 1-phosphate synthase antibody (1:500) raised against purified recombinant L-myo-inositol 1-phosphate synthase of Entamoeba (Lohia et al, Mol. Biochem. Parasitol. 98, 67-79, 1999) or purified cytosolic L myo-inositol 1-phosphate […] from Oryza leaves. Bound antibody was detected by the chemiluminiscence (kit from Amersham Life Sciences). […] The expressed RINO1 and PINO1 proteins were solubilized from the pellet fractions in solubilization buffer (8M urea, 0.5 M NaCl, 20 mM Tris-HCl pH 7.5, 10 mM ME, 2 mM PMSF) kept for 30 minutes at room temperature. […]

[3] = substrate: NC(=O)c1ccc[n+]([C@@H]2O[C@H](COP(=O)([O-])OP(=O)(O)OC[C@H]3O[C@@H](n4cnc5c(N)ncnc54)[C@H](O)[C@@H]3O)[C@@H](O)[C@H]2O)c1; test: Km and Vmax of recombinant RINO1 (Biogel 0.5A purified, Line-Weaver Burk analysis); type: biochemical, Oryza sativa; details: other: recombinant RINO1, expressed in E. coli BL21 (DE3), pH 7.5
Description: as §1

Row | Protein | Km ([1]; other: recombinant PINO1, expressed in E. coli BL21 (DE3)) [mM] | Km [2] [mM] | Km ([1]; other: recombinant RINO1, expressed in E. coli BL21 (DE3)) [mM] | Km [3] [mM]
1 | B1 | 2.5 | 0.166 | – | –
2 | B2 | – | – | 3 | 0.188

From patent publication US20060148059A1, “Salt tolerant l-myo-inositol 1-phosphate synthase and the process of obtaining the same” (priority 2002, published 2006)
